{"source": "patent US10792332B2", "about": "“Anti-infective properties of antifreeze protein” (priority 2013, dated 2020)", "molecules": {"B1": {"name": "IAFGP: Ixodes scapularis anti-freeze glycoprotein, 251 amino acids, SEQ ID NO: 3; also expressed transgenically in flies and mice (protein, listed as Ixodes scapularis)", "chain": "MTTLLRLTILIVAVAGVLGSSKRAARAATPATAATPATPATAATPAIAATPATAATPATAATPARKARAATPATPATPATAATPATAATPARKARAATAATPATPATAATPARKARAATPATPATAATPATAATPARKARAATPATPATAATPATAATPARKARAATPATPATAATPATAATPARKARAATPATPATAATAATPARKARAATAATPATPATAATPARKARAATPATAATAATPATAATAAA"}}, "key": {"S. aureus [1]": {"system": "S. aureus", "assay": "Bacterial growth in vitro (OD600)", "format": "cell-based, Staphylococcus aureus", "conditions": "0.1 mg/ml in BHI/G, 37° C., SA113 or USA300 JE2", "protocol": "A stationary culture of S. aureus was diluted to OD600=0.01 in BHI medium and supplemented with 0.2 mg/ml recombinant IAFGP-GST, BSA or PBS as control. Bacterial growth was measured over time at OD600 using a spectrophotometer. Growth curves from 5 independent experiments were pooled±SEM.\nA stationary culture of S. aureus SA113 or USA300 JE2 was diluted in BHI/G to OD600=0.01 supplemented with 0.1 mg/ml IAFGP-GST, GST, P1, sP1 or media alone. Following static incubation at 37° C. for 24 h bacterial density was measured at OD600 using a spectrophotometer."}, "[2]": {"assay": "Murine subcutaneous catheter implant model", "format": "in vivo, C57Bl/6 mice", "conditions": "under the conditions used", "protocol": "FIG. 5A depicts bacterial attachment to intravenous catheters that had been incubated in PBS, GST, GST-IAFGP, P2 and P21c before transferring into S. aureus SA113 suspensions. Bacterial attachment was quantified after sonication by plating serial dilutions. Data were pooled from 3 independent experiments (One-Way-ANOVA; *: p<0.05). FIG. 5B presents bacterial attachment to intravenous catheters that had been incubated in PBS, P1 or sP1 and implanted subcutaneously on the dorsal flanks of C57Bl/6 mice. 72 hrs after catheter inoculation with 5×10^5 CFU S. aureus SA113 the catheters were removed and the attached bacteria were quantified by plating serial dilutions. […]\nSeven days after catheter inoculation with S. aureus SA113, the catheters were removed, and the attached bacteria were quantified by plating serial dilutions.\n(§1) Cecal ligation and puncture surgery was performed as described^26,41 Mice were anesthesized using isoflurane inhalation and the cecum was exteriorized through a peritoneal midline incision. […] Body surface temperature was measured dorsally using an infrared thermometer. A retro-orbital blood sample was taken daily and the cytokine levels of TNF-α, IL-6, IL12b and MCP-1 were measured using enzyme-linked immunosorbent assay (ELISA) kits (eBiosciences, San Diego, Calif.). […] The number of attached bacteria was determined by plating serial dilutions on agar plates."}, "S. aureus [3]": {"system": "S. aureus", "assay": "Static biofilm assay (safranin stain)", "format": "cell-based, Staphylococcus aureus", "conditions": "preliminary data", "protocol": "Biofilm assays were performed as described^38. Briefly, planktonic overnight cultures of S. aureus were diluted in glucose-supplemented tryptic soy broth or brain-heart-infusion broth (1% glucose; TSB/G or BHI/G) to OD600=0.015 and distributed into 96 well plates (Corning, NC). After an 18 h incubation at 37° C. bacterial growth in each well was confirmed by the measurement of OD600 using a spectrophotometer (BioTek, VT). The supernatant was discarded and the wells were washed with water twice. Bacteria associated with the well surface were dried and stained with safranin. The dye was then dissolved in 33% acetid acid and quantified at OD415 nm using a spectrophotometer (BioTek, VT). Bacterial attachment to catheter materials pre-incubated with peptides was investigated. Vialon™ catheters (BD Biosciences, NJ) were incubated for 18 h in 0.1 mg/ml peptides dissolved in PBS, washed with PBS and incubated in bacterial suspensions for 24 h. Following removal of non-adherent bacteria with repeated washing, adherent bacteria and biofilms were dissociated using sonication in PBS. Bacterial titers were quantified by plating serial dilutions on agar plates and were calculated per as CFU per catheter."}, "S. aureus USA300 JE2": {"system": "S. aureus USA300 JE2", "assay": "Intranasal MRSA challenge of iafgp-transgenic mice", "format": "in vivo", "conditions": "iafgp-transgenic mice vs controls", "protocol": "Iafgp-expressing mice were infected with USA300 JE2. 1.2×10^8 CFU logarithmic growth phase bacteria per mouse were applied intranasally in 50 μl PBS and murine survival was monitored."}, "Listeria monocytogenes": {"system": "Listeria monocytogenes", "assay": "Needle prick infection of iafgp-expressing fruit flies", "format": "in vivo, D. melanogaster", "source_text": "(§2) A 0.6 μm tungsten needle was dipped into a 1:10 diluted stationary culture of L. monocytogenes and flies were pricked in the right lateral side of the thorax. Fly survival was monitored visually over the course of infection. Uninfected controls (n.i.; n=40) were pricked with a needle dipped into PBS. Data were pooled from 2 independent experiments (Log-rank test; p<0.005). […] Groups of 20-25 flies were transferred into vials containing only a piece of absorbing tissue. Stationary bacterial cultures, resuspended in 4% sucrose and diluted 2-fold were used to soak the paper, controls received only sucrose solution. Every 3 days the flies were transferred into new vials with freshly soaked tissue, and bacterial survival was measured. […] Uninfected controls (n.i.; n=40) were housed in vials with 4% sucrose. Data were pooled from 2 independent experiments (Log-rank test; p<0.001/p<0.001)."}, "polymicrobial sepsis": {"system": "polymicrobial sepsis", "assay": "Cecal ligation and puncture (polymicrobial sepsis) in iafgp-transgenic mice", "format": "in vivo", "source_text": "Iafgp was constitutively expressed under control of the chicken β-actin promoter in an iafgp-transgenic mouse line. The promoter region was excised from pβAct-CAT 9 (ATCC, VA) using XhoI and HindIII and subcloned into the pEGFP-1 vector (Clontech, CA). EGFP was removed from pβAct-EGFP-1 by digestion with BamHI and NotI resulting in pβAct-1. Iafgp was then PCR-amplified using oligomers iafgp BamHI F and iafgp NotI R, introducing the corresponding restriction sites. The PCR fragment was digested and cloned into linearized pβAct-1, resulting in pβAct-iafgp. For microinjection, the transgene fragment containing the β-actin promoter and iafgp gene was excised from pβAct-iafgp by digestion with XhoI and AflII restriction enzymes and gel purified. Microinjection was performed in […] (C57BL/6×C3H) and mice were genotyped by PCR analysis of tail biopsies using IAFP4qRTF and IAFP4qRTR. mRNA expression of iafgp was confirmed in multiple tissues using the same primers for qRT-PCR. Transgenic iafgp-expressing mice were backcrossed for 8 generations to C57Bl/6 mice (Charles River, Mass.). Heterozygous experimental mice of 6-12 weeks were age- and sex-matched with wild-type littermates and wild-type C57Bl/6 as control. All mice were housed at 20-22° C. with water and food ad libitum. Animal handling was performed according to protocols approved by the Yale animal care and use committee.\nas §1, with “incision. Seventy-five percent of the cecum was ligated and punctured through and through with a 21G hypodermic needle.” for “incision.”"}, "S. aureus SA113 [4]": {"system": "S. aureus SA113", "assay": "S. aureus microinjection challenge of iafgp-expressing fruit flies", "format": "in vivo, D. melanogaster", "protocol": "FIGS. 3A-3E present transgenic expression of iafgp in fruit flies and susceptibility of transgenic flies to S. aureus challenge in vivo. […] Survival data were pooled from 6 independent experiments (Log-rank test; p<0.001). […] Bacterial colonization of individual flies was determined by plating serial dilutions. Data was pooled from 3 independent experiments (One-Way-ANOVA with Tukey's post-test; ***: p<0.001; **: p<0.01; *: p<0.05). FIG. 3C presents PNAG production in iafgp-transgenic and control flies challenged with S. aureus SA113. PNAG levels of pools of 5 flies were assessed at different time points by immunoblot. Average signal intensities of 3 independent experiments±SEM with representative immunoblot images below are shown (Two-Way-ANOVA with Sidak's post test;[…]). FIG. 3D presents PNAG production in iafgp-transgenic and control flies challenged with S. aureus SA113. Paraffin sections of whole flies were stained for bacteria and PNAG. Black triangles point to bacteria, empty triangles indicate PNAG staining. […] Survival data were pooled from 4 independent experiments (Log-rank test; not significant).\nIafgp-expressing and mCherry-expressing flies were generated as described^13. D. melanogaster flies were maintained using standard procedures^39. The fly colony was sustained at 21-23° C. Following infection, flies were incubated at 29° C. to increase UAS-mediated transgene expression. Five to 9 day old females were used for experiments. Twenty to 30 flies per vial were infected by microinjection as reviewed in^40 and survival was monitored. Microinjection was performed into the thorax below the wing using a Nanojet microinjector (Drummond Scientific, PA). Bacteria in stationary growth phase were diluted in PBS to OD600=0.01 or OD600=0.1 and 9.2 nl were injected, corresponding to an infectious dose of 50-100 to 500-1000 CFU per fly respectively. For CFU analysis individual flies were homogenized in […] using a bullet blender (Nextadvance, NY) and steel beads. Serial dilutions were plated on brain-heart-infusion agar plates and incubated at 37° C. overnight. Endogenous fly bacteria only grew to pinprick-size overnight, allowing visual distinction of the fast-growing bacteria used for infection (data not shown). mRNA was isolated from individual flies homogenized in […] using RNAeasy kit (Qiagen, Hilden, Germany). Following DNAse digestion with Turbo DNA-free Kit (Ambion/Life Technologies, NY) RNA was reverse-transcribed with iScript cDNA synthesis kit (BioRad, CA) and gene expression was quantified by qRT-PCR using iQ SYBR Green Supermix (BioRad, CA)."}, "Pseudomonas entomophila": {"system": "Pseudomonas entomophila", "assay": "Oral infection of iafgp-expressing fruit flies", "format": "in vivo, D. melanogaster", "source_text": "as §2"}, "Serratia marcescens": {"system": "Serratia marcescens", "assay": "Oral infection of iafgp-expressing fruit flies", "format": "in vivo, D. melanogaster", "source_text": "as §2"}, "S. aureus SA113 [5]": {"system": "S. aureus SA113", "assay": "Bacterial attachment to pre-incubated intravenous catheters in vitro", "format": "cell-based, Staphylococcus aureus", "protocol": "FIG. 5A depicts bacterial attachment to intravenous catheters that had been incubated in PBS, GST, GST-IAFGP, P2 and P21c before transferring into S. aureus SA113 suspensions. Bacterial attachment was quantified after sonication by plating serial dilutions. Data were pooled from 3 independent experiments (One-Way-ANOVA; *: p<0.05). FIG. 5B presents bacterial attachment to intravenous catheters that had been incubated in PBS, P1 or sP1 and implanted subcutaneously on the dorsal flanks of C57Bl/6 mice. 72 hrs after catheter inoculation with 5×10^5 CFU S. aureus SA113 the catheters were removed and the attached bacteria were quantified by plating serial dilutions. CFU data were pooled from 3 independent experiments (One-Way-ANOVA with Tukey's post-test; **: p<0.01). […] S. aureus are indicated by black triangles, biofilm matrix are indicated by empty triangles.\nBiofilm assays were performed as described^38. Briefly, planktonic overnight cultures of S. aureus were diluted in glucose-supplemented tryptic soy broth or brain-heart-infusion broth (1% glucose; TSB/G or BHI/G) to OD600=0.015 and distributed into 96 well plates (Corning, NC). […] The dye was then dissolved in 33% acetid acid and quantified at OD415 nm using a spectrophotometer (BioTek, VT). […] Bacterial titers were quantified by plating serial dilutions on agar plates and were calculated per as CFU per catheter."}, "[6]": {"conditions": "iafgp-expressing flies vs controls"}}, "note": "“And” between values parts separate entries of the source, which are not always exact repeats. Equal values may be shown once. “Also recorded” adds a separate entry of the source. Ends that are not written are not given here."}
{"molecule": "AAAAATATAAARRAAAAPTTAKTT [sP1, P2 randomized, soluble, negative control]", "values": [{"measurement": "bacterial density/viability at OD600 after 24 h static incubation", "setting": "S. aureus [1]", "result": "Neither proteins nor peptides affected bacterial growth"}]}
{"molecule": "PARKARAATAATAATAATAATAAT [P1]", "values": [{"measurement": "toxicity in vivo", "setting": "[2]", "result": "no signs of toxicity"}]}
{"molecule": "PARKARAATPATPATAATPATAAT (listed as Ixodes scapularis) [P0]", "values": [{"measurement": "anti-biofilm activity", "setting": "S. aureus [3]", "result": "anti-biofilm activity has been identified"}]}
{"molecule": "B1", "values": [{"measurement": "survival after intranasal MRSA challenge", "setting": "S. aureus USA300 JE2", "result": "increased survival; also recorded: enhanced survival"}, {"measurement": "fly survival after L. monocytogenes infection", "setting": "Listeria monocytogenes", "result": "increased fly survival"}, {"measurement": "general health and activity (disease score)", "setting": "polymicrobial sepsis; 24-36 h after surgery, transgenic vs control mice", "result": "significantly better general health and activity"}, {"measurement": "extended (average) survival compared to controls after CLP", "setting": "polymicrobial sepsis; iafgp-expressing mice", "result": "40% and 35%"}, {"measurement": "hypothermia and serum cytokine release of MCP-1, TNF-α, IL6 and IL12p40", "setting": "polymicrobial sepsis; iafgp-expressing mice vs controls", "result": "delayed"}, {"measurement": "pathogen titers in flies over the course of infection", "setting": "S. aureus SA113 [4]; iafgp-expressing flies", "result": "remained stable over the course of infection"}, {"measurement": "PNAG quantity during S. aureus infection of flies", "setting": "S. aureus SA113 [4]; [6]", "result": "reduced"}, {"measurement": "fly survival after S. aureus microinjection", "setting": "S. aureus SA113 [4]; [6]", "result": "enhanced survival"}, {"measurement": "effect of IAFGP on flies challenged with PNAG-deficient S. aureus ΔicaADBC mutant", "setting": "S. aureus SA113 [4]; ΔicaADBC mutant", "result": "completely abrogated"}, {"measurement": "fly survival after P. entomophila infection", "setting": "Pseudomonas entomophila", "result": "increased fly survival"}, {"measurement": "fly survival after S. marcescens infection", "setting": "Serratia marcescens", "result": "increased fly survival"}, {"measurement": "bacterial attachment / biofilm formation on intravenous catheters in vitro", "setting": "S. aureus SA113 [5]", "result": "altered bacterial attachment; also recorded: reduced biofilm formation"}, {"measurement": "lowering of catheter-associated bacteria in comparison to untreated controls", "setting": "S. aureus SA113 [5]; catheters incubated in protein or peptide solution, then S. aureus suspension", "result": 9, "unit": "fold"}]}
